The values that follow are results of earlier work, collected in PMC5535146.

Read-outs that look alike come from different tables or passages of the source.

Data set [1] has as its target calmodulin (UniProt P0DP23).
The target in data set [2] is calmodulin (UniProt P0DP23). The source holds these as a separate data set.

As usually defined, the Kd is a measure of binding affinity in units of concentration. Turning to “CyaA adenylate cyclase AC (from UniProt P0DKX7)”, the Kd in the data set with calmodulin [1] is 0.2 nM.
As for edema factor (from UniProt P40136), the Kd with calmodulin [2] was 20 nM.
